The values that follow come from PMC9482650, “Quantitative fragmentomics allow affinity mapping of interactomes” (Nature Communications, 2022).

Holding throughout (assay): holdup assay
What all share (design): key: below the threshold = too weak to quantify, mostly under pKd 3.1 to 4
Details in all cases: plain residues with an end cap or a label only (N-terminal biotin on a linker: ado-ado)

The target of test [1] is T1, PCLO, Q9Y6V0.
T1 sequence (Q9Y6V0 4491-4600, limits assumed, looked up): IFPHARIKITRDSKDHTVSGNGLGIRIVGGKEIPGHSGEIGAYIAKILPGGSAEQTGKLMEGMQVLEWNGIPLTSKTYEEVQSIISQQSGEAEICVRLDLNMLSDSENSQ

Test [2] deals with T2, FRMPD1, Q5SYB0.
T2 sequence (Q5SYB0 52-145, limits assumed, looked up): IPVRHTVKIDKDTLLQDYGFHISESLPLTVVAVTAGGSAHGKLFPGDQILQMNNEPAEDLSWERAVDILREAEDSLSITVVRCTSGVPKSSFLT

The target of test [3] is IL16_4, Q14005.
Chain of IL16_4, Q14005 (Q14005 1229-1329): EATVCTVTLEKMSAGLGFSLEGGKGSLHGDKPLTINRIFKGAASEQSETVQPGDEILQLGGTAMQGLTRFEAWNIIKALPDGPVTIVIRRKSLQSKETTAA

What is called pKd is the negative decadic logarithm of the Kd, by convention in mol/L. Take HDDYFYHDEL [RCN2, Q14257]: the pKd result in test [1], in test [2] and in test [3] was “below the threshold” each time.

TKDKVQETQI [LRRC4, Q9HBW1]: the pKd entry in test [1], in test [2] and in test [3] was “below the threshold” throughout.

Take GNDPDRGTSI [GRID2, O43424]: the pKd entry in test [1], in test [2] and in test [3] was “below the threshold” each time.

On to PLPPEEESWV [GAS2L2, Q8NHY3], for which the negative logarithm of the Kd (pKd) entry in test [1], in test [2] and in test [3] was “below the threshold” throughout.

Take EFKQTSSFLV [JAM1, Q9Y624]: the negative-log Kd (pKd) result in test [1], in test [2] and in test [3] was “below the threshold” throughout.

For the molecule KLQNPNQSVV [TYRP1, P17643], the pKd result in test [1], in test [2] and in test [3] was “below the threshold” each time.

As for VKQYADVEGF [HNRNPK, P61978;P61978-2], the pKd entry in test [1] and in test [2] was “below the threshold” throughout.

For LVEEEEPMNL [HDAC7, Q8WUI4], the pKd entry in test [1], in test [2] and in test [3] was “below the threshold” throughout.

As for VYEVPVETKF [SLC26A3, P40879], the negative logarithm of the Kd (pKd) entry in test [1], in test [2] and in test [3] was “below the threshold” in each case.

With ADEMICITTL [CACNA1D, Q01668], the pKd entry in test [1], in test [2] and in test [3] was “below the threshold” throughout.

Take SKQFDKNAYV [CLDN10, P78369]: the negative-log Kd (pKd) entry in test [1], in test [2] and in test [3] was “below the threshold” in each case.

As to SGDGKTSVWI [GJC1, P36383], the negative-log Kd (pKd) result in test [1], in test [2] and in test [3] was “below the threshold” throughout.

As for PKSNSSKEYV [CLDN7, O95471], the pKd result in test [1], in test [2] and in test [3] was “below the threshold” in each case.

Take VCMGDHWFDV [PRKN, O60260]: the pKd entry in test [1], in test [2] and in test [3] was “below the threshold” throughout.

On to HYPASPDSWV [CTNND2, Q9UQB3], for which the results for the pKd result in test [1], in test [2] and in test [3] were “below the threshold”, “below the threshold” and 3.67, respectively.

For PSDSVGKDVF [EGLN1, Q9GZT9], the pKd result in test [1] is “below the threshold”; in test [2], “below the threshold”; in test [3], 3.63.

As for NISARRFTLC [FAM167B, Q9BTA0], the negative logarithm of the Kd (pKd) result in test [1], in test [2] and in test [3] was “below the threshold” throughout.

For SQPLLVHDDV [KIT, P10721], the pKd entry in test [1], in test [2] and in test [3] was “below the threshold” in each case.

For the molecule LLQEEWETVM [PTH1R, Q03431], the negative logarithm of the Kd (pKd) result in test [1] is “below the threshold”; in test [2] it was “below the threshold”; in test [3], 3.93.

For RSPVATATSC [DUSP5, Q16690], the pKd result in test [1], in test [2] and in test [3] was “below the threshold” in each case.

For EPAKETTTNV [SLC2A3, P11169], the pKd entry in test [1], in test [2] and in test [3] was “below the threshold” each time.

Take HLSTRQGTCV [ATRNL1, Q5VV63]: the negative-log Kd (pKd) entry in test [1], in test [2] and in test [3] was “below the threshold” throughout.

QKNKDREYYV [NRXN3, Q9HDB5]: the pKd entry in test [1], in test [2] and in test [3] was “below the threshold” in each case.

For DFKHTKSFII [JAM2, P57087], the pKd result in test [1], in test [2] and in test [3] was “below the threshold” in each case.

As for PAALPESTHM [SLC9A3, P48764], the negative logarithm of the Kd (pKd) result in test [1], in test [2] and in test [3] was “below the threshold” throughout.

With NNMAFETTHF [SLC5A12, Q1EHB4], the negative-log Kd (pKd) entry in test [1], in test [2] and in test [3] was “below the threshold” throughout.

MLPANYVEAI [NEB, P20929]: the pKd result in test [1], in test [2] and in test [3] was “below the threshold” in each case.

Turning to KAEEKPPSKV [SCN4B, Q8IWT1], the pKd entry in test [1] was “below the threshold”; in test [2], “below the threshold”; in test [3], 3.65.

Take PGKKPEDSRV [SLCO2B1, O94956]: the pKd result in test [1], in test [2] and in test [3] was “below the threshold” in each case.

As to NTALVESEDL [PALLS, Q8WX93;Q8WX93-1], the pKd entry in test [1] and in test [2] was “below the threshold” throughout.

For LPPPESESKV [KCNJ9, Q92806], the negative logarithm of the Kd (pKd) result in test [1], in test [2] and in test [3] was “below the threshold” in each case.

Regarding STYCDYTIEI [FAM71C, Q8NEG0], the pKd result in test [1], in test [2] and in test [3] was “below the threshold” in each case.

Regarding QRYPGNQTTC [CCL24, O00175], the pKd result in test [1], in test [2] and in test [3] was “below the threshold” throughout.

In the case of THREVKFTSL [CD46, P15529], the pKd result was “below the threshold” in test [1], “below the threshold” in test [2] and 3.88 in test [3].

Regarding MQILSKPEFI [NPSR1, Q6W5P4], the figures for the negative-log Kd (pKd) result in test [1], in test [2] and in test [3] were “below the threshold”, “below the threshold” and 3.7, respectively.

On to SSSVNVSSNL [CXCR1, P25024], for which the pKd result in test [1], in test [2] and in test [3] was “below the threshold” in each case.

In the case of KKTPVSRSHL [SLC22A3, O75751], the negative logarithm of the Kd (pKd) result in test [1], in test [2] and in test [3] was “below the threshold” in each case.
